Measurements published in US20240309076A1 (REGENXBIO, published 2024).

B1: NI-502.8H1 (antibody, V domains shown)
VH: EVQLVESGGGLVQPGGSLRLSCAASGFTFSIYTMSWVRQAPGKGLEWVSAILSDGSTYYADSVEGRFTISRDNSKTTLYLQMNSLTAEDTAVYYCTKRVEGSFRGWGQGTLVTVSS
VL: EIVMTQSPGTLSLSPGESATLSCRASQSVSTTYLAWYQQKPGQAPRLLIYGASSRATGIPDRFSGSGSGTDFTLTISRLEPEDFAVYYCQQYGGSRLITFGQGTRLEIK
B2: NI-502.4P3 (antibody, V domains shown)
VH: EVQLVQSGAEVKKPGESLKISCKVSGYDFSKYWIGWVRQMPGKGLEWMGLIYPGDSDTRYSPSLEGQVSISADKSISAAYLQFSSLKASDSAMYYCVRKGYSAYLGGWFDPWGQGTLVTVSS
VL: DIQLTQSPDSLAASLGERVTINCRSSQNIFYNSNNKNFLAWYQQKAGQSPKLLIYWASTRESGVPDRFSGSGSGTDFTLTISGLQAGDVAVYFCQQYFTDAPTFGGGTKVEIK

Biological target: Tau and AD-associated Tau in brain tissue and brain extracts of patients with tauopathy (AD, PSP, PiD) (human, UniProt P10636-8 2-441, limits assumed, pathologically hyperphosphorylated and aggregated; the sites are not specified)
Sequence (P10636 other isoform, or with tags, fused parts or gaps limits assumed): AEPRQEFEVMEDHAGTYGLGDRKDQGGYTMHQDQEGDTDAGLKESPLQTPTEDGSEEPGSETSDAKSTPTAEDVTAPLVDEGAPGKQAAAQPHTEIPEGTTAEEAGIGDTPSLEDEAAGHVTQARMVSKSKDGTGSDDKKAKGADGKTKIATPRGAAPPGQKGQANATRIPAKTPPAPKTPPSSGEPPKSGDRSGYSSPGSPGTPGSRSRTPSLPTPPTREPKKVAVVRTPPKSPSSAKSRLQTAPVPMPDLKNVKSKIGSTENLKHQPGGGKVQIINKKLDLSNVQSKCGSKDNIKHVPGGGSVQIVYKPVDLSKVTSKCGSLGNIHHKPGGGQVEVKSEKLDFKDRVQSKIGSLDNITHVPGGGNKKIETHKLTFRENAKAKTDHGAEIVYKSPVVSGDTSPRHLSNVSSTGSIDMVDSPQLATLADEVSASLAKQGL
Experiment: cell-based or functional assay

Binder	IC50 of Tau aggregation (integrated FRET density) in HEK293T Tau biosensor cells after immunodepletion of AD brain homogenate [µg/mL]
B1	7.1
B2	6.5
